# In patent US20090169538A1, “Methods of Treating or Preventing Tissue Damage Caused by Increased Blood Flow” (REGENERX BIOPHARMACEUTICALS, INC., priority 2006, published 2009):
# Key:
# [1] = target: T1, integrin linked kinase (ILK) (Homo sapiens, UniProt Q13418); assay: coimmunoprecipitation with ILK; assay type: binding
# T1 construct: expressed in transfected cells; host or cells: Cos and 10T1/2 cells
# T1 sequence (Q13418 1-452): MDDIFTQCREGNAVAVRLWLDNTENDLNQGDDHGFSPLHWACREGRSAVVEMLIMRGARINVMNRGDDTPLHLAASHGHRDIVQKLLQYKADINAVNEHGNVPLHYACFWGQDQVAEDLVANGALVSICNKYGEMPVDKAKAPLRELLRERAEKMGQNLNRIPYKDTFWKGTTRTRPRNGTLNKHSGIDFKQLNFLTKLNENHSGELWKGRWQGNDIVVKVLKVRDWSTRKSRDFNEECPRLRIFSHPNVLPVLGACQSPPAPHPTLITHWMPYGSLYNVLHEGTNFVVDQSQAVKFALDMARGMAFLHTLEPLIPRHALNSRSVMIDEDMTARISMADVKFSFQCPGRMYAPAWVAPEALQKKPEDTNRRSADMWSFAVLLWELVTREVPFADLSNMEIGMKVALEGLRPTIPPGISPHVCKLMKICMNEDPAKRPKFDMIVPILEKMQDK
# Source text: To investigate the potential mechanisms through which thymosin β4 might be influencing cell migration and survival events, thymosin β4 interacting proteins were searched. The amino-terminus of […] was fused with affi-gel beads resulting in exposure of the carboxy-terminus that allowed identification of previously unknown interacting proteins but prohibited association with actin. An E9.5-12.5 mouse heart T7 phage cDNA library was synthesized and screened by phage display and thymosin β4-interacting clones were enriched and confirmed by ELISA. PINCH, a LIM domain protein, was most consistently isolated in this screen and interacted with thymosin β4 in the absence of actin (ELISA). PINCH and integrin linked kinase (ILK) interact directly with one another and indirectly with the actin cytoskeleton as part of a larger complex involved in cell-extracellular matrix interactions known as the focal adhesion complex. PINCH and ILK are required for cell motility and for cell survival, in part by promoting phosphorylation of the serine-threonine kinase Akt/protein kinase B, a central kinase in survival and growth signaling pathways. […] The PINCH interaction with thymosin β4 mapped to the fourth and fifth LIM domains of PINCH while the amino terminal ankryin domain of ILK was sufficient for thymosin β4 interaction. […]
# [2] = tested on: cardiac endothelial cells; assay: collagen gel assay, transformation of cardiac endothelial cells to mesenchymal cells; assay type: cell-based; conditions: Tβ4 at physiological concentrations
# Experimental: Synthetic Tβ4 and an antibody to Tβ4 was provided by RegeneRx Biopharmaceuticals, Inc. (3 Bethesda Metro Center, Suite 700, Bethesda, Md. 20814) and were tested in a collagen gel assay to determine their effects on the Transformation of cardiac endothelial cells to mesenchymal cells. It is well established that development of heart valves and other cardiac tissue are formed by epithelial-mesenchymal transformation and that defects in this process can cause serious cardiovascular malformation and injury during development and throughout life. […] Transformation of atrioventricular endocardium into invasive mesenchyme is an aspect of the formation and maintenance of normal cardiac tissue and in the formation of heart valves.
# Synthetic Tβ4 and an antibody to Tβ4 was provided by RegeneRx Biopharmaceuticals, Inc. (3 Bethesda Metro Center, Suite 700, Bethesda, Md. 20814) and were tested in a collagen gel assay to determine their effects on the Transformation of cardiac endothelial cells to mesenchymal cells. It is well established that development of heart valves and other cardiac tissue are formed by epithelial-mesenchymal transformation and that defects in this process can cause serious cardiovascular malformation and injury during development and throughout life. […]
substance,measurement,setting,value
thymosin β4,strength of interaction of ILK with thymosin β4,[1]; common complex immunoprecipitation,weaker than with PINCH
same,co-precipitation with ILK,[1]; plasmids transfected in cultured cells,co-precipitated
same,transformation of endocardial cells to mesenchymal cells,[2],markedly enhances
